The values that follow come from US7217700.

Assay [1] concerns the target CCR7 (human) (UniProt P32248). The experiment in a line: cell-based or functional assay.
For assay [2], the target named is T1, CCR6 (human) (UniProt P51684).
T1 sequence (looked up): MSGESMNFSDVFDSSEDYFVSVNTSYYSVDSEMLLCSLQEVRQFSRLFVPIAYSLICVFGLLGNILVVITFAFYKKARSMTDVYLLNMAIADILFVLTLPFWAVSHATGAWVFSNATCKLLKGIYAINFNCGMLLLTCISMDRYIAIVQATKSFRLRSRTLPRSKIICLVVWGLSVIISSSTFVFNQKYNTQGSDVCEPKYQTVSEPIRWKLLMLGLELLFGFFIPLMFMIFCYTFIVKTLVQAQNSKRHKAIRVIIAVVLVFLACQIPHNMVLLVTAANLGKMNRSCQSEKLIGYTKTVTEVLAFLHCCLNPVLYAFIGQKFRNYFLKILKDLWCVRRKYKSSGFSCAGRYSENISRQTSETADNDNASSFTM
The experiment in a line: cell-based or functional assay.

UniProt P32248, sequence (P32248 25-378): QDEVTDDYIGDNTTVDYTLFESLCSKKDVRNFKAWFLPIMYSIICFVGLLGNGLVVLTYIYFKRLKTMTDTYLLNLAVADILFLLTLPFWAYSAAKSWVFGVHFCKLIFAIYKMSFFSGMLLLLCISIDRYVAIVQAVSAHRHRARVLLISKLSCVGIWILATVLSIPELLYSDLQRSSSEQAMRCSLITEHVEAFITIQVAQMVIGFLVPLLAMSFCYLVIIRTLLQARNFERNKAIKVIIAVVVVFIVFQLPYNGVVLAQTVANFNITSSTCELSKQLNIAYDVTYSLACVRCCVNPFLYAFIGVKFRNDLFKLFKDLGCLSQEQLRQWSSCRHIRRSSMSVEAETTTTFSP

As to “Recombinant human MIP-3β (from UniProt Q99731 22-98) (ligand)”, in assay [1], the Ca2+ flux (Indo-1 fluorimetry) in mature CD34+-derived DC; concentration giving the maximal flux is 30 ng/mL, the chemotaxis (Boyden microchamber) of mature DC (CD1a+CD86+); concentration needed to recruit the cells amounted to 300 ng/mL and the chemotaxis of CD40L-activated CD34+-derived DC; concentration required at 48 h lay within 100 to 300 ng/mL.

Regarding “Recombinant human MIP-3α (from UniProt P78556 27-96) (ligand)”, in assay [2], the Ca2+ flux (Indo-1 fluorimetry) in immature CD34+-derived DC; concentration giving the maximal flux came out at 30 ng/mL, the chemotaxis (Boyden microchamber) of DC precursors (CD1a-CD86-); concentration at which the response is detected lay within 1 to 10 ng/mL and the chemotaxis (Boyden microchamber) of immature DC (CD1a+CD86-); concentration needed to attract the cells was > 300 ng/mL.
